Columns and labels:
[1] = Detection of unconjugated bilirubin in human serum by apo UnaG fluorescence; settings: apo UnaG added to 200-fold diluted human serum, room temperature, 527 nm
Description: Blood (5 mL) was collected in a vacuum sealed blood collection tube (Neo-Tube, NIPRO) from a vein of the arm using a needle of 23G (Terumo Corporation) and a 5-mL cylinder (Terumo Corporation). The collected blood was shielded from light and was left to stand at room temperature for 30 min and was then centrifuged at a rotation speed of 3,000 rpm for 20 min (KUBOTA K-80) to collect about 2.5 mL of serum. The collected serum was cooled with ice while being shielded from light and was promptly subjected to measurement of bilirubin.
Apo UnaG was added to the serum diluted with PBS by 200-fold so as to give a final concentration of 0.5 μM, and 200 μL of the mixture was added to each well of a 96-well microplate (black, non-binding, Greiner Bio-One). Measurement of fluorescence was started immediately after the addition of samples to the plate. The fluorescence intensity was measured at room temperature at every 10 min for 1 hr at a fluorescence wavelength of 527 nm (excitation wavelength: 497 nm) using EnSpire (trademark) multi-mode plate reader (PerkinElmer Co., Ltd.). Each serum was measured using three wells, and the serum not mixed with apo UnaG protein was also measured as background. The net fluorescence intensity was determined by subtracting the intensity level of the background from the intensity level of the serum mixed with apo UnaG protein. […]

[2] = target: T1, apo UnaG protein (Anguilla japonica, UniProt P0DM59); assay: Reconstruction of apo UnaG protein using bilirubin or bilirubin analog, fluorescence intensity; assay type: binding, Japanese eel (Anguilla japonica); settings: 0.5 μM apo UnaG, ligand 0.125-2.0 μM, 30 min room temperature, excitation 497 nm / emission 527 nm
T1 construct: GST (N, cleaved yes); made in house; host or cells: Escherichia coli BL21 (DE3)
Description: Bilirubin or a bilirubin analog, biliverdin (Toronto Research Chemicals), urobilin (MP Biomedicals), or ditaurobilirubin (Frontier Scientific), was diluted with PBS such that the final concentration was 0.125 μM, 0.25 μM, 0.5 μM, 1.0 μM, or 2.0 μM and was mixed with 0.5 μM apo UnaG protein. The mixture was left to stand at room temperature for 30 min. Subsequently, 200 μL of the mixture was added to each well of a 96 well microplate (Greiner Bio-One) and was subjected to measurement of the fluorescence intensity at a wavelength of 527 nm with excitation light having a wavelength of 497 nm using EnSpire multi-mode plate reader (PerkinElmer Co., Ltd.).

[3] = system: Escherichia coli cells; assay: Expression of recombinant UnaG protein in Escherichia coli, fluorescence observation; assay type: cell-based; settings: blue light, UV transilluminator
Excerpt: A DNA fragment including the sequence of full-length UnaG gene prepared above was ligated to the restriction enzyme sites, BamHI and EcoRI, of Escherichia coli expression vector […] (GE Healthcare) including a GST-tag sequence that can express the GST-fused protein in Escherichia coli and transformed into Escherichia coli strain DH5α for subcloning. Thus, a UnaG (apo form) expression vector (pGEX-2T-UnaG) for Escherichia coli was constructed.
The constructed expression vector (pGEX-2T-UnaG) was transformed into Escherichia coli strain BL21 (DE3). The transformant was cultured on a plate of an LB solid medium to obtain colonies. The resulting colonies were inoculated in 40 mL of an LB liquid medium and were cultured overnight at 37° C. Here, a glycerol stock of the resulting Escherichia coli solution was produced, and this glycerol stock was used as the recombinant (vector) for Escherichia coli expression in the experiments described below. The LB medium was scaled up to 400 mL using the culture solution, followed by culturing at 37° C. for 1 hr (A600≈1.0). […]
FIG. 1 includes diagrams showing expression of recombinant UnaG protein in Escherichia coli and mammalian cells. […] The diagram (c) includes a differential interference image and a fluorescence image by observation of mammalian cell HEK293T expressing recombinant UnaG protein under a fluorescence microscope. […]

[4] = Evaluation of aggregability of protein by dynamic light scattering particle diameter; assay type: physicochemical; settings: wild-type 10 mg/mL, R82EK84E mutant 8.5 mg/mL
Description: Protein solutions (each 20 μL) of wild-type UnaG protein (10 mg/mL) and R82EK84E mutated UnaG protein (8.5 mg/mL) were each supplied to Microtrac particle size analyzer MT3000II (Nikkiso Co., Ltd.), and the particle diameters were measured by a dynamic light scattering. The aggregability was evaluated by plotting frequency against particle diameter.

B1: UnaG: fluorescent polypeptide including the amino acid sequence of SEQ ID NO: 1, originally isolated from Japanese eel; fluoresces in the presence of bilirubin (protein, listed as Anguilla japonica)
chain: MVEKFVGTWKIADSHNFGEYLKAIGAPKELSDGGDATTPTLYISQKDGDKMTVKIENGPPTFLDTQVKFKLGEEFDEFPSDRRKGVKSVVNLVGEKLVYVQKWDGKETTYVREIKDGKLVVTLTMGDVVAVRSYRRATE
In the case of B1, the “time stable fluorescence lasts” value [1] is reported as at least 1 h, the “time until stable fluorescence is generated” value [1] is reported as “about 10 min” and the “fluorescence of UnaG on addition of ligand (specificity)” value [2] is reported as “specific to bilirubin”. For the same molecule, the “fluorescence of expressed protein in cells” value [3] was “did not emit fluorescence” and the “particle diameter distribution (peaks)” value [4] was “two peaks of different particle diameter distribution ranges”.

— patent US9957308B2, “Method for detecting bilirubin using a fluorescent protein” (RIKEN, priority 2013, dated 2018)
